The source of these data is article PMC11623273.

Like-named read-outs stand apart in the source and are kept apart here.

In experiment [1] the target is Fab AP33 (Mus musculus). The following applies: other; Disulfide-linked heavy and light Fab chains. No candidate fits and the paper prints no AP33 sequence. PDB 4GAG (murine AP33 Fab with the E2 412-423 peptide) is cited from memory; entities 1 and 2 are assumed to be the antibody chains, and the peptide entity is excluded. The C-terminal double Strep tag on the heavy chain is omitted. The constant-region species of the S2-expressed Fab is not given; modification not given.

The target in experiment [2] is Fab AP33 (Mus musculus). Particulars: domain or fragment; Disulfide-linked heavy and light Fab chains. No candidate fits and the paper prints no AP33 sequence. PDB 4GAG (murine AP33 Fab with the E2 412-423 peptide) is cited from memory; entities 1 and 2 are assumed to be the antibody chains, and the peptide entity is excluded. The C-terminal double Strep tag on the heavy chain is omitted. The constant-region species of the S2-expressed Fab is not given; modification not given.

B1: E2_S2_1 (design 2K6Z_01), epitope scaffold displaying HCV E2 epitope I (protein)
chain: MGSFTEGWVRFSPGPNAAAYLTLENPGDLPLRLVGARTPVAERVELWETQLINTNGSWHIGSRPVPFLEVPPKGRVELSPGGYYFHLLGLKRPLKAGEEVELDLLFAGGKVLKVVLPVEARGSENLYFQ
The term Kd denotes the constant that tells how readily two partners part at equilibrium. Take B1: the dissociation constant Kd in experiment [1] came to 44.9 nM. That is a double-digit nanomolar value.

B2: soluble HCV E2 ectodomain (sE2) (protein)
chain: GTTTVGGAVARSTNVIAGVFSHGPQQNIQLINTNGSWHINRTALNCNDSLNTGFLAALFYTNRFNSSGCPGRLSACRNIEAFRIGWGTLQYEDNVTNPEDMRPYCWHYPPKPCGVVPARSVCGPVYCFTPSPVVVGTTDRRGVPTYTWGENETDVFLLNSTRPPQGSWFGCTWMNSTGFTKTCGAPPCRTRADFNASTDLLCPTDCFRKHPDATYIKCGSGPWLTPKCLVHYPYRLWHYPCTVNFTIFKIRMYVGGVEHRLTAACNFTRGDRCDLEDRDRSQLSPLLHSTTEWAILPCTYSDLPALSTGLLHLHQNIVDVQYMYGLSPAITKYVVR
As to B2, the Kd in experiment [2] was determined as 58.4 nM.
